# B1: recombinant ACC2 catalytic domain (carboxyltransferase domain of human Acetyl-Coenzyme A Carboxylase 2, residues 1715-2483 of SEQ. ID No. 1) with a … (enzyme)
# chain: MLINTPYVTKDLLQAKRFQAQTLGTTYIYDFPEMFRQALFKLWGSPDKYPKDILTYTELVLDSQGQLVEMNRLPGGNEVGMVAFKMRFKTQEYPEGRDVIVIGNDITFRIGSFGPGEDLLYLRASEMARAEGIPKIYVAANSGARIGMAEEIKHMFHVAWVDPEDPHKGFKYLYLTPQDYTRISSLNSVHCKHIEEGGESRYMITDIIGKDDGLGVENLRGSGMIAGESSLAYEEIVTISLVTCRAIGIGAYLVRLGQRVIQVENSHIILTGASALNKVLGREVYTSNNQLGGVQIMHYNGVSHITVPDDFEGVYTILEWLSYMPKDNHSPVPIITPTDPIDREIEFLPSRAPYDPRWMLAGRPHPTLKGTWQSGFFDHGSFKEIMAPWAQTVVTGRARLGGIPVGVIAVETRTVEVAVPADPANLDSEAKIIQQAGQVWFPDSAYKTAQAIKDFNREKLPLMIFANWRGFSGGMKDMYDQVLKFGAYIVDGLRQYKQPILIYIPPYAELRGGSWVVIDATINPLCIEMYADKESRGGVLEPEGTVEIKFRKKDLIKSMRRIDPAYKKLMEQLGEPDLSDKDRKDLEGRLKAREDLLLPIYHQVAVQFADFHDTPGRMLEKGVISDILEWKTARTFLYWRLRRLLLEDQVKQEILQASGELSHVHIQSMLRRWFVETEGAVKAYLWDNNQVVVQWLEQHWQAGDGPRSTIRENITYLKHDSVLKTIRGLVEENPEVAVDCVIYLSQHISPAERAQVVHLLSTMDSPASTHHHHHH
# modifications: one acetylation observed by mass spectrometry (position not given)
# notes: The entries describe its self-association into the homodimer (two copies of this chain); Expressed in Sf9 insect cells; In the crystal it is in complex with acetyl-CoA, a small molecule; also called carboxyltransferase domain of ACC2; ID No. 3
# Target: the molecule itself
# Experiment: analytical size-exclusion chromatography; self-association (homodimer)
protein,measurement,value
B1,binding result,binds
